Laboratory results published in US20140113322A1, “SUPRAMOLECULAR NANOBEACON IMAGING AGENTS AS PROTEASE SENSORS” (priority 2012, published 2014).

Tested on: MCF-7 cells

## COc1cc(N=Nc2ccc(C)cc2[N+](=O)[O-])c(C)cc1N=Nc1ccc(N(C)CCCC(=O)NCCCC[C@H](NC(=O)CNC(=O)[C@H](CC(C)C)NC(=O)[C@H](Cc2ccccc2)NC(=O)CNC(=O)c2ccc3c(c2)C(=O)OC32c3ccc(O)cc3Oc3cc(O)ccc32)C(=O)NCC(=O)N[C@@H](CCCNC(=N)N)C(=O)N[C@@H](CCCCN)C(=O)N[C@@H](CCCCN)C(=O)N[C@@H](CCCNC(=N)N)C(=O)N[C@@H](CCCNC(=N)N)C(=O)N[C@@H](CCC(N)=O)C(=O)N[C@@H](CCCNC(=N)N)C(=O)N[C@@H](CCCNC(=N)N)C(=O)N[C@@H](CCCNC(=N)N)C(=O)N2CCC[C@H]2C(=O)N2CCC[C@H]2C(=O)N[C@@H](CCC(N)=O)C(N)=O)cc1 [TFB]
  toxicity to MCF-7 cells (cell viability): little toxicity
